Legend:
GST-Rab11a-Q70L = assay: GST-pulldown from HEK293 lysates; assay type: binding; settings: N = 2; for pulldown by GST-Rab11a-Q70L in words, with Q1753R mutant MyoVa: HEK293 lysates with GFP-MyoVa-Q1753R in place of GFP-MyoVa-FL
Procedure: HEK293 cells were co-transfected with expression vectors encoding Myc-Spir-2-FL, mStrawberry-FMN2-FH2-FSI, eGFP-MyoVa-D-FL and eGFP-MyoVa-D-Q1753R, respectively. 24 hr post transfection, cells were lysed in lysis buffer (25 mM Tris-HCl pH 7.4, 150 mM NaCl, 5 mM MgCl2, 10% (v/v) glycerol, 0.1% (v/v) Nonidet P-40, 1 mM PMSF, protease inhibitor cocktail) and centrifuged at 20,000 x g, 4°C, 20 min to remove insoluble debris. For GST-pulldown assays 65 µg GST-Rab11a-Q70L protein (25 µg GST control) was coupled to GSH-Sepharose 4B beads (1:1 suspension) for 1 hr, 4°C on a rotating wheel. Beads were washed twice with pulldown buffer (25 mM Tris-HCl pH 7.4, 150 mM NaCl, 5 mM MgCl2, 10% (v/v) glycerol, 0.1% (v/v) Nonidet P-40) and subsequently incubated with the cell lysates for 2 hr at 4°C on a rotating wheel. Beads were washed four times with pulldown buffer and bound proteins were eluted with 1x Laemmli buffer and denatured at 95°C for 10 min, then were analyzed by immunoblotting.

GFP-MyoVb-GTD = assay: Co-immunoprecipitation from HEK293 cells; assay type: binding, Homo sapiens; settings: anti-Myc co-IP, HEK293, immunoblot
Procedure: HEK293 cells were transfected with expression vectors encoding Myc-tagged Spir proteins and GFP-tagged myosin Va and myosin Vb fragments. 48 hr post transfection, cells were lysed in lysis buffer (25 mM Tris-HCl pH 7.4, 150 mM NaCl, 5 mM MgCl2, 10% (v/v) glycerol, 0.1% (v/v) Nonidet P-40, 1 mM Phenylmethylsulfonylfluorid (PMSF; Sigma-Aldrich), protease inhibitor cocktail (complete mini, EDTA-free; Roche, Penzberg, Germany)) and centrifuged at 20,000 x g, 4°C, 20 min to remove insoluble debris. The clarified supernatant was incubated with 4 µg anti-c-Myc antibody (9E10, mouse monoclonal; Santa Cruz Biotechnology; RRID: AB_627268) for 1 hr on ice. Subsequently, 40 µl Protein G-Agarose beads (1:1 suspension; Roche) were added and incubated for 2 hr at 4°C on a rotating wheel. Beads were washed with pulldown buffer (25 mM Tris-HCl pH 7.4, 150 mM NaCl, 5 mM MgCl2, 10% (v/v) glycerol, 0.1% (v/v) Nonidet P-40). Bound proteins were eluted with 1x Laemmli buffer and denatured for 10 min at 95°C, then analyzed by immunoblotting.

mStrawberry-Rab11a = assay: Colocalization with Rab11 in HeLa cells, Pearson's correlation coefficient; assay type: cell-based, Mus musculus
Procedure: (§1) HeLa cells were seeded on microscope cover glasses and transfected with Myc-epitope-tagged Spir-2 proteins and fluorescently-tagged MyoV and Rab11 proteins as described above. Cells were fixed with paraformaldehyde (3.7% in 1x PBS) for 20 min at 4°C and subsequently permeabilized using 0.2% Triton X-100 (in 1x PBS) for 3.5 min, room temperature. Cells were incubated with anti-c-Myc antibody (9E10, mouse monoclonal, 2 µg/ml, Santa Cruz Biotechnology; RRID: AB_627268) for 1 hr at room temperature and conjugated anti-mouse secondary antibodies (Cy5; from donkey, 3.25 µg/ml, Dianova (RRID: AB_2340820) and TRITC; from donkey, 3.125 µg/ml, Dianova (RRID: AB_2340767)) for 1 hr at room temperature avoiding exposure to light. Finally, cells were mounted on microscope slides with Mowiol and analyzed with a Leica AF6000LX fluorescence microscope, equipped with a Leica HCX PL APO 63x/1.3 GLYC objective and a Leica DFC350 FX digital camera (1392 × 1040 pixels, 6.45 × 6.45 µm pixel size). 3D stacks were recorded and processed with the Leica deconvolution software module. In case of the MyoVa autoregulation/activation experiments, we quantified the MyoVa expression levels. […] In order to clearly distinguish between vesicular and cytoplasmic MyoVa localization, we imaged either high or low expressing cells and determined the sum of pixel gray values per cell as a measure for the MyoVa expression levels. Based on that, we only used cells for the autoregulation analysis having a sum of pixel gray values less than 20 × 10^6 for the expression of GFP-MyoVa-D-FL. Images were recorded using the Leica LASX software and further processed with Adobe Photoshop and subsequently assembled with Adobe Illustrator.
The extent of colocalization of Rab11, Spir-2 and MyoVa was analyzed using the ImageJ (V2.0.0) plug-in Coloc 2. Here, the colocalization rate is indicated by the Pearson’s Correlation Coefficient (PCC) as a statistical measure to unravel a linear correlation between the intensity of different fluorescent signals. […] To take the noise of each image into account and to gain an objective evaluation of PCC significance, a Costes significance test was performed. Therefore, the pixels in one image were scrambled randomly and the correlation with the other (unscrambled) image was measured. […] Statistical data analysis was performed using SPSS 22 (IBM, Armonk, NY, USA).

HeLa cells = assay: Subcellular localization by fluorescence microscopy; assay type: cell-based
Procedure: as §1

GFP-MyoVa-Q1753R: eGFP-tagged full-length MyoVa with Q1753R mutation, which disrupts interaction with Rab11
pulldown by GST-Rab11a-Q70L in words, with Q1753R mutant MyoVa (GST-Rab11a-Q70L): but not the GFP-MyoVa-Q1753R mutant

Straw-FMN2-FH2-FSI: mStrawberry-tagged C-terminal formin-2, aa 1135 - 1578
pulldown by GST-Rab11a-Q70L in words (GST-Rab11a-Q70L; HEK293 lysates over-expressing Myc-Spir-2, Straw-FMN2-FH2-FSI and GFP-MyoVa-FL): able to pull down
pulldown by GST-Rab11a-Q70L in words, with Q1753R mutant MyoVa (GST-Rab11a-Q70L): Only faint

B1: 1 423: N-terminal Spir-2 deletion mutant (protein)
chain: ARAGSCGGAAAGAGRPEPWELSLEEVLKAYEQPLNEEQAWAVCFQGCRGLRGSPGRRLRDTGDLLLRGDGSVGAREPEAAEPATMVVPLASSEAQTVQSLGFAIYRALDWGLDESEERELSPQLERLIDLMANNDSEDSGCGAADEGYGGPEEEEEAEGVPRSVRTFAQAMRLCAARLTDPRGAQAHYQAVCRALFVETLELRAFLARVREAKEMLQKLREDEPHLETPRAELDSLGHTDWARLWVQLMRELRRGVKLKKVQEQEFNPLPTEFQLTPFEMLMQDIRARNYKLRKVMVDGDIPPRVKKDAHELILDFIRSRPPLKQVSERRLRPLPPKQRSLHEKILEEIKQERRLRPVRGEGWAARGFGSLPCILNACSGDAKSTSCINLSVTDAGGSAQRPRPRVLLKAPTLAEMEEMNTS
modifications: left off: Myc epitope, end not stated, kept
notes: N-terminal Spir-2 deletion mutant
co-precipitation / interaction with MyoVb-GTD in words (GFP-MyoVb-GTD): show myosin V co-precipitation

B2: Myc-Spir2-SB-FYVE: Myc-hs-Spir2-SB-FYVE aa 438 - 714, lacks the MyoV binding motif (protein)
chain: DRSFSEHDLAQLRSEVASGLQSATHPPGGTEPPRPRAGSAHVWRPGSRDQGTCPASVSDPSHPLLSNRGSSGDRPEASMTPDAKHLWLEFSHPVESLALTVEEVMDVRRVLVKAEMEKFLQNKELFSSLKKGKICCCCRAKFPLFSWPPSCLFCKRAVCTSCSIKMKMPSKKFGHIPVYTLGFESPQRVSAAKTAPIQRRDIFQSLQGPQWQSVEEAFPHIYSHGCVLKDVCSECTSFVADVVRSSRKSVDVLNTTPRRSRQTQSLYIPNTRTLDFK
modifications: left off: Myc epitope, end not stated, kept
PCC (mStrawberry-Rab11a; GFP-MyoVa-CC-GTD + mStraw-Rab11 + Myc-Spir2-SB-FYVE (first block, r34), cell 1): 0.63
PCC (mStrawberry-Rab11a; GFP-MyoVa-CC-GTD + mStraw-Rab11 + Myc-Spir2-SB-FYVE (first block, r34), cell 2): 0.74
PCC (mStrawberry-Rab11a; GFP-MyoVa-CC-GTD + mStraw-Rab11 + Myc-Spir2-SB-FYVE (first block, r34), cell 3): 0.59
PCC (mStrawberry-Rab11a; GFP-MyoVa-CC-GTD + mStraw-Rab11 + Myc-Spir2-SB-FYVE (first block, r34), cell 4): 0.23
Pearson's correlation coefficient (PCC), mean (mStrawberry-Rab11a; GFP-MyoVa-CC-GTD + mStraw-Rab11 + Myc-Spir2-SB-FYVE (first block, r34), mean of 4 cells): 0.5475
colocalization with Rab11 in words (mStrawberry-Rab11a; co-expression of Spir-2-SB-FYVE, MyoVa-CC-GTD and Rab11a, HeLa cells): significant reduction

B3: Spir-1: Myc-hs-Spir1 aa 2 - 757, full-length (protein)
chain: MANTVEADGSKDEGYEAADEGPEDEDGEKRSISAIRSYQDVMKICAAHLPTESEAPNHYQAVCRALFAETMELHTFLTKIKSAKENLKKIQEMEKGDESSTDLEDLKNADWARFWVQVMRDLRNGVKLKKVQQRQYNPLPIEYQLTPYEMLMDDIRCKRYTLRKVMVNGDVPPRLKKSAHEVILDFIRSRPPLNPVSARKLKPTPPRPRSLHERILEEIKAERKLRPVSPEEIRRSRLVRPLSMSHSFDLSDVTTPESPKNVGESSMVNGGLTSQTKENGLSAAQQGSAQRKRLLKAPTLAELDSSDSEEEKSLHKSTSSSSASPSLYEDPVLEAMCSRKKPPKFLPISSTPQPERRQPPQRRHSIEKETPTNVRQFLPPSRQSSRSLEEFCYPVECLALTVEEVMHIRQVLVKAELEKYQQYKDVYTALKKGKLCFCCRTRRFSFFTWSYTCQFCKRPVCSQCCKKMRLPSKPYSTLPIFSLGPSALQRGESCSRSEKPSTSHHRPLRSIARFSTKSRSVDKSDEELQFPKELMEDWSTMEVCVDCKKFISEIISSSRRSLVLANKRARLKRKTQSFYMSSAGPSEYCPSERTINEI
co-precipitation / interaction with MyoVb-GTD in words (GFP-MyoVb-GTD): did interact with the GFP-MyoVb-GTD

B4: Myc-Spir-2-KIND-WH2: Myc-hs-Spir2-KIND-WH2 aa 2 - 410 (protein)
chain: ARAGSCGGAAAGAGRPEPWELSLEEVLKAYEQPLNEEQAWAVCFQGCRGLRGSPGRRLRDTGDLLLRGDGSVGAREPEAAEPATMVVPLASSEAQTVQSLGFAIYRALDWGLDESEERELSPQLERLIDLMANNDSEDSGCGAADEGYGGPEEEEEAEGVPRSVRTFAQAMRLCAARLTDPRGAQAHYQAVCRALFVETLELRAFLARVREAKEMLQKLREDEPHLETPRAELDSLGHTDWARLWVQLMRELRRGVKLKKVQEQEFNPLPTEFQLTPFEMLMQDIRARNYKLRKVMVDGDIPPRVKKDAHELILDFIRSRPPLKQVSERRLRPLPPKQRSLHEKILEEIKQERRLRPVRGEGWAARGFGSLPCILNACSGDAKSTSCINLSVTDAGGSAQRPRPRVLLK
modifications: left off: Myc epitope, end not stated, kept
subcellular localization in words (HeLa cells; co-expression of eGFP-MyoVa-FL and N-terminal Spir-2 fragment): both cytosolic
subcellular localization in words (HeLa cells; single expression): even cytoplasmic and nuclear localization

B5: 398 714: C-terminal Spir-2 deletion mutant (protein)
chain: GSAQRPRPRVLLKAPTLAEMEEMNTSEEEESPCGEVTLKRDRSFSEHDLAQLRSEVASGLQSATHPPGGTEPPRPRAGSAHVWRPGSRDQGTCPASVSDPSHPLLSNRGSSGDRPEASMTPDAKHLWLEFSHPVESLALTVEEVMDVRRVLVKAEMEKFLQNKELFSSLKKGKICCCCRAKFPLFSWPPSCLFCKRAVCTSCSIKMKMPSKKFGHIPVYTLGFESPQRVSAAKTAPIQRRDIFQSLQGPQWQSVEEAFPHIYSHGCVLKDVCSECTSFVADVVRSSRKSVDVLNTTPRRSRQTQSLYIPNTRTLDFK
modifications: left off: Myc epitope, end not stated, kept
notes: C-terminal Spir-2 deletion mutant
co-precipitation / interaction with MyoVb-GTD in words (GFP-MyoVb-GTD): show myosin V co-precipitation
